Results: publication PMC6035287

Target: bovine brain tubulin (free tubulin) (bovine) (UniProt Q6B856)
Test: ITC; TOG domain proteins in the syringe (150 μM CLASP2 TOG1, TOG2, TOG3; 200 μM CLIP-ID; 250 μM Stu2 TOG1), 15 μM bovine brain tubulin in the cell; BRB80 with 50 mM NaCl, 25°C; one set of sites model

B1: Stu2 TOG1 (domain or fragment)
chain: MSGEEEVDYTTLPLEERLTYKLWKARLEAYKELNQLFRNSVGDISRDDNIQIYWRDPTLFAQYITDSNVVAQEQAIVALNSLIDAFASSSLKNAHNITLISTWTPLLVEKGLTSSRATTKTQSMSCILSLCGLDTSITQSVELVIPFFEKKLPKLIAAAANCVYELMAAFGLTNVNVQTFLPELLKHVPQLAGHGDRNVRSQTMNLIVEIYKVTGNNSDLLEEILFKKLKPIQVKDLHKLFAKVGDEPSSSKMLFEWEKRELEKKRSQEEEA
With B1 the Kd was 18.8 nM.
